Experimental data: patent US20190367589A1
Numbering of substitutions follows the chain as printed. One block for each binder: values may come before it.

What was measured:
[1] = biological target: rat Jagged 2 (rJAG2) (rat) (UniProt P97607); assay: drawn table 'Kd (nM)' of Fab; method not stated; the legend names the matured antibody as 4D11
mouse Jagged 1 (mouse) [2] = assay: ELISA, ligand-Fc coated (method lists rat Jagged 1-Fc), anti-human IgG Fab-specific HRP
mouse Jagged 1 (mouse) [3] = assay: ELISA as for the other curves; sheet and legend say mouse Jagged 1, the method lists rat Jagged 1-Fc as the coated protein

Kd [1]: < 1 nM
B1: 4D11 Fab (Fab, V domains shown)
VH: EVQLLESGGGLVQPGGSLRLSCAASGFTFSSYAMSWVRQAPGKGLEWVSSIDPEGRQTYYADSVKGRFTISRDNSKNTLYLQMNSLRAEDTAVYYCAKDIGGRSAFDYWGQGTLVTVSS
VL: DIQMTQSPSSLSASVGDRVTITCRASQSISSYLNWYQQKPGKAPKLLIYAASSLQSGVPSRFSGSGSGTDFTLTISSLQPEDFATYYCQQTVVAPPLFGQGTKVEIKR

affinity (ELISA) (mouse Jagged 1 (mouse) [2]): > 30 nM | EC50 (read off the curve) (mouse Jagged 1 (mouse) [3]): 50 nM
B2: anti-Jagged 32 IgG (antibody, V domains shown)
VH: EVQLLESGGGLVQPGGSLRLSCAASGFTFSSYAMSWVRQAPGKGLEWVSSIEQMGWQTYYADSVKGRFTISRDNSKNTLYLQMNSLRAEDTAVYYCAKSAAAFDYWGQGTLVTVSS
VL: DIQMTQSPSSLSASVGDRVTITCRASQSISSYLNWYQQKPGKAPKLLIYAASLQSGVPSRFSGSGSGTDFTLTISSLQPEDFATYYCQQTVVAPLTFGQGTKVEIKR

affinity (ELISA) (mouse Jagged 1 (mouse) [2]): > 30 nM
B3: anti-Jagged 13 IgG (antibody, V domains shown)
VH: B2 VH with Q53T, M54Q, W56P, Q57T, Y59L, S99T, A100S, A101S
VL: B2 VL with A51S, S75G, T90N, V92A, A93T
